Laboratory results as given in paper PMC9859039, “The conserved centrosomin motif, γTuNA, forms a dimer that directly activates microtubule nucleation by the γ-tubulin ring complex (γTuRC)” (eLife, 2022).

B1: Strep-His-TEV-HaloTag-3C-Xenopus γTuNA (Xenopus Cdk5rap2 aa 56–101), wildtype [Xenopus laevis] / itself (parent)
chain: MKDFEKQIAELKKENFNLKLRIYFLEEQVQQKCDNSSEDLYRMNIE
B2: Strep-His-TEV-HaloTag-3C-human γTuNA (human CDK5RAP2 aa 53–98), wildtype [human] / itself (parent)
chain: SPTRARNMKDFENQITELKKENFNLKLRIYFLEERMQQEFHGPTEH

Variants of: B1
Test: size-exclusion chromatography (self-association / dimerization)
Conditions: with itself; 50 µM (monomer); Superdex 200 increase 10/300 GL; read off a plot

**Q.** For MKDAEKQIAELKKENFNLKLRIYFLEEQVQQKCDNSSEDLYRMNIE [chain 1 F4A], which screen value is on record?
**A.** 13.4 mL

**Q.** MKDFEKQIAELKKENFNAKLRIYFLEEQVQQKCDNSSEDLYRMNIE [chain 1 L18A] was tested. Which screen value did it give?
**A.** 14.2 mL

**Q.** For MKDFEKQDAEDKKENFNLKLRIYFLEEQVQQKCDNSSEDLYRMNIE [chain 1 I8D L11D], which screen value is on record?
**A.** 15 mL

**Q.** How did the screen value turn out when MKDFEKQIAELKKENANLKLRIYFLEEQVQQKCDNSSEDLYRMNIE [chain 1 F16A] was run?
**A.** 13.3 mL

**Q.** With MKDFEKQAAELKKENFNLKLRIYFLEEQVQQKCDNSSEDLYRMNIE [chain 1 I8A] as the variant, how does the screen value read?
**A.** 13.5 mL

**Q.** How did the screen value turn out when MKDFEKQIAEAKKENFNLKLRIYFLEEQVQQKCDNSSEDLYRMNIE [chain 1 L11A] was run?
**A.** 14 mL

Same assay, conditions: with itself; 50 µM (monomer); Superdex 200 increase 10/300 GL; main peak, a minor shoulder near 13.2 mL is also drawn; read off a plot

**Q.** MKDFEKQIAELKKENFNAKLRIYFLEEQVQQKCDNSSEDLYRMNIE [chain 1 L18A] was tested. Which screen value did it give?
**A.** 14.2 mL

Variants of: B2
Test: as above
Conditions: with itself; 50 µM (monomer); Superdex 200 increase 10/300 GL; main peak, a minor peak near 12.9 mL is also drawn; read off a plot

**Q.** With SPTRARNMKDDENQDTEDKKENFNLKLRIYFLEERMQQEFHGPTEH [chain 1 F11D I15D L18D] as the variant, how does the screen value read?
**A.** 15.1 mL

Same assay, conditions: with itself; 50 µM (monomer); Superdex 200 increase 10/300 GL; read off a plot

**Q.** How did the screen value turn out when SPTRARNMKDFENQATEAKKENFNLKLRIYFLEERMQQEFHGPTEH [chain 1 I15A L18A] was run?
**A.** 15.1 mL

**Q.** SPTRARNMKDFENQDTEDKKENFNLKLRIYFLEERMQQEFHGPTEH [chain 1 I15D L18D] was tested. Which screen value did it give?
**A.** 15.1 mL

Same assay, conditions: with itself; 50 µM (monomer); Superdex 200 increase 10/300 GL; main peak, a minor peak near 13.1 mL is also drawn; read off a plot

**Q.** With SPTRARNMKDAENQATEAKKENFNAKLRIYFLEERMQQEFHGPTEH [chain 1 F11A I15A L18A L25A] as the variant, how does the screen value read?
**A.** 15 mL
